Experimental data as given in patent US20170319655A1.

How the values were obtained:
[1] = biological target: flagellin on flagellin-expressing Pseudomonas aeruginosa wild type bacteria (Pseudomonas aeruginosa); assay: cell-based or functional assay
[2] = biological target: MUC1-ED on Ad-NEU1-infected airway epithelial cells (A549 cells; SAECs), desialylated by overexpressed NEU1 (human) (UniProt P15941); assay: cell-based or functional assay

Substance: E. coli-expressed deglycosylated MUC1-ED (from E. coli transformed with pMUC1) (from UniProt P15941 24-1097) (receptor)
- reduction of Pa adhesion to A549 monolayers, against the empty vector control [1]: 93%

Substance: MUC1-ED from supernates of airway ECs cultured with the O-glycosylation inhibitor GalNAc-O-bn (from UniProt P15941 24-1158) (receptor)
- reduction of Pa adhesion to A549 monolayers, against its control [1]: 88%

Substance: flagellin on flagellin-expressing Pseudomonas aeruginosa wild type bacteria (ligand)
- Pa adhesion to Ad-NEU1-infected A549 cells (CFUs bound), against Ad-GFP-infected ECs [2]: 2 fold
- Pa adhesion to Ad-NEU1-infected SAECs (CFUs bound), against Ad-GFP-infected SAECs [2]: 3.4 fold

Substance: shed MUC1-ED from culture supernates of flagellin-stimulated A549 cells (from UniProt P15941 24-1158) (receptor)
- MUC1-ED concentrations capable of inhibiting Pa adhesion in vitro [1]: < 0.63 µg/mL

Substance: desialylated shed MUC1-ED from culture supernates of Ad-NEU1-infected A549 cells (from UniProt P15941 24-1158) (receptor)
- MUC1-ED concentrations capable of inhibiting Pa adhesion in vitro [1]: < 0.63 µg/mL
- reduction of Pa adhesion to A549 monolayers, against MUC1-ED from Ad-GFP-infected ECs [1]: 65%

Substance: desialylated MUC1-ED in bronchoalveolar lavage fluids (BALFs) from Pa-colonized patients (from UniProt P15941 24-1158) (receptor)
- inhibition of Pa adhesion to A549 cells, against BALFs from noncolonized subjects [1]: 52.9%
- inhibition of Pa adhesion to A549 cells, against BALFs from patients colonized with nonPa microorganisms [1]: 42.1%
